The values that follow are results of earlier work, collected in paper PMC9528908.

The target in one series is Glu66 (UniProt position 148, FTKKMEENAKK). The series is described as follows: stability.
The target in another series is Asp66 (UniProt position 148, FTKKMDENAKK). The series is described as follows: stability.

Regarding “Staphylococcal nuclease (SNase) V66E variant (Staphylococcus aureus; V66E)”, the pKa with Glu66 is 8.73–9.28. For the substance “Staphylococcal nuclease (SNase) V66D variant (Staphylococcus aureus; V66D)”, the pKa in the series with Asp66 is given as 8.45–9.03.
